According to publication PMC3778016, “Tracking of Chromosome and Replisome Dynamics in Myxococcus xanthus Reveals a Novel Chromosome Arrangement”:

Legend:
[1] = molecular target: T1, His6-ParB (Myxococcus xanthus DK1622, UniProt Q1CVJ4 1-296); assay: EMSA; 100 nM DNA, 0.1-6 uM His6-ParB, 5 uM pBluescript II SK- competitor, 5 mM Mg2+; 38 mM Hepes/NaOH pH 7.2, 38 mM NaCl, 5 mM MgCl2, 7% glycerol, 1 mM beta-mercaptoethanol, 20 min at 30 C; 6% PAGE at 4 C in 1xTBE + 5 mM MgCl2; conditions: protein: recombinant; tags: N-terminal His6 (pET45b+); chain copies: 2; blunt
T1 sequence: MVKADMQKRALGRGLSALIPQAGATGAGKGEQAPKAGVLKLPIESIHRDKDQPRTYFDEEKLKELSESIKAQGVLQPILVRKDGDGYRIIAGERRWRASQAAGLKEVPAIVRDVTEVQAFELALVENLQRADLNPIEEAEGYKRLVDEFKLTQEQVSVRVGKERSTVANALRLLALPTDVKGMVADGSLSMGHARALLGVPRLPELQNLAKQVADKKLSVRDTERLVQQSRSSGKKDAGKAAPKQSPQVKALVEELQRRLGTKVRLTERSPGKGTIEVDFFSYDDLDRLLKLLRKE

[2] = molecular target: T1, His6-ParB; assay: as above; conditions: protein: recombinant; tags: N-terminal His6 (pET45b+); chain copies: 2; blunt; remark: listed apart in the source

Binder	binding result [1]	binding signal [2]
HEX-parS consensus (dsDNA) DNA 1: GAGGCTTGTTCCACGTGGAACGTCGG DNA 2: CCGACGTTCCACGTGGAACAAGCCTC	binds	
HEX-parSmut (dsDNA) DNA 1: GAGGCTTGCCCCACGTGGAACGTCGG DNA 2: CCGACGTTCCACGTGGGGCAAGCCTC		~10 fold reduced affinity vs N1
